{"source": "patent US20150259430A1", "about": "(MAB DISCOVERY, published 2015)", "binders": {"B1": {"name": "Antibody 68 (antibody, V domains shown)", "VH": "QSVEESGGRLVTPGTPLTLTCTVSGFSLSTYSMSWVRQAPGKGLEWIGTIAISGTTYYASWAKGRFTISKSSTTVDLKISSPTTEDTATYFCARYVSDLIGTNLWGPGTLVTVSS", "VL": "DVVMTQTPASVSEPVGGTVTIKCQASQSIGSNLAWHQQKPGQPPKLLIYAASNLASGVSSRFKGSRSGTEYTLTISAVQCDDAATYYCQYTYYGSSVVIGTFGGGTEVVVK", "notes": "rabbit IgG in B-cell supernatant"}, "B2": {"name": "Antibody B02 (antibody, V domains shown)", "VH": "QSVEESGGRLVTPGTPLTLTCTVSGFSLSSYDMIWVRQAPGKGLEYIGIINTGGSAHYARWANGRFTISKTSTKVDLKITSPTIEDTATYFCARRDFGVSSKLWGQGTLVTVSS", "VL": "DIVMTQTPASVSAAVGGTVTINCQASEDIGNWLAWYQQKPGQRPKLLIYAASDLASGVPSRFKGSGSGTDFTLTISGLECADAATYYCQGGFFGSGFVYAFGGGTEVVVK", "notes": "as for B1"}, "B3": {"name": "Antibody 47 (antibody, V domains shown)", "VH": "QSVEESGGRLVTPGTPLTLTCTVSGFSLSSYAMNWVRQAPGKGLEWIGIIDSSGITYYATWAKGRFTISKTSTTVDLKMTSLTTEDTATYFCARGVTLWGQGTLVTVSS", "VL": "AQVLTQTASPVSAAVGSTVTINCQASQSVYNNNRLSWFQQKPGQPPKLLISGASTLASGVSSRFSGSGSGTQFTLTISDVQCDDAATYYCLGSYDCSSADCGAFGGGTEVVVK", "notes": "as for B1"}, "B4": {"name": "Antibody G04 (antibody, V domains shown)", "VH": "QSLEESGGDLVKPGASLTLTCKASGFTISSSYYMCWVRQAPGKGLEWVACSYDGDGSTYYANWAKGRFTTSKTSSTTVTLQMTSLTAADTATYFCARGSYVSRSYYDKWDLWGQGTLVTVSS", "VL": "EVVMTQTPASVSEPVGGTVTIKCQASQYISSYLSWYQQKPGQPPKLLIYAASNLASGVPSRFKGSGSGTEFTLTISGVQCDDAATYYCQNNYYISGYGTAFGGGTEVVVK", "notes": "as for B1"}, "B5": {"name": "Antibody 65 (antibody, V domains shown)", "VH": "QSVEESGGRLVTPGTPLTLTCTVSGFSLNNYYMTWVRQAPGKGLEWIGVISGSATTYYASWAKGRFTISQTSTTVDLRITSPTTEDTATYFCARSLTADIIDYYNIWGPGTLVTVSL", "VL": "DVVMTQTPASVSEPVGGTVTIKCQASEDINALLAWYQQKPGQPPKLLIYVASYLQSGVPSRFKGSGSGTEYTLTISGVQCADAATYYCQSAYDSSGYVGAFGGGTEVVVK", "notes": "as for B1"}, "B6": {"name": "Antibody 48 (antibody, V domains shown)", "VH": "QSLEESGGDLVKPGASLTLTCTASGFDLNSDYWICWVRQAPGKGLEWIACIDTGYGDIYYASWAKGRFTISKTSSTTVTLQMTSLTAADTATYFCAREIIFHFNLWGPGTLVTVSS", "VL": "DVVMTQTPASVSEPVGGTVTIKCQASQSIRSYLAWYQQKPGQPPKVLIYKASTLASGVSSRFKGSGSGTQFTLTISDLECADAATYYCQGGVELNNYLYNPFGGGTEVVVK", "notes": "as for B1"}, "B7": {"name": "Antibody 37 (antibody, V domains shown)", "VH": "B6 VH with K12Q, G14E, A15G, T22K, F26L, L28F, N29S, D31S, I70M, I99K", "VL": "B6 VL with R30K, S31N, A34S, I48L, L94V", "notes": "as for B1"}, "B8": {"name": "Antibody 49 (antibody, V domains shown)", "VH": "B6 VH with D31N", "VL": "B6 VL with R30S, L94V", "notes": "as for B1"}, "B9": {"name": "Antibody 25 (antibody, V domains shown)", "VH": "B6 VH with T20I, S30T, D31N, T53S, S62T, T73A", "VL": "B6 VL with L94F, P101S", "notes": "as for B1"}, "B10": {"name": "Antibody 77 (antibody, V domains shown)", "VH": "QSVEESGGRLVTPGTPLTLTCTISGFSLNNYWMSWVRQAPGKGLEWIGIISSSDTTWYASWAKGRFTISRTSTTVDLKMTSLTTEDTATYFCARDRGDVGYSDLDLWGPGTLVTVSS", "VL": "AYDMTQTPASVEVAVGGTVTIKCQASQSISSYLSWYQQKPGQPPKLLIYKASTLASGVSSRFSGSGSGTEFTLTISGVQCDDAATYYCQQGYSESNLDNAFGGGTEVVVK", "notes": "as for B1"}, "B11": {"name": "Antibody A05 (antibody, V domains shown)", "VH": "QSLEESGGRLVTPGGSLTLTCTVSGIDLSSYAVAWVRQAPGKGLQYIGFFDKSGNVYYASWAKGRFTISRTSSTTVDLKMTSLTTEDTATYFCGRGSGGSDLWGQGTLVTVSS", "VL": "DVVMTQTPASVEAAVGGTVTIKCQASQSISGYLAWFQQKPGQPPKLLIYGASTLASGVPSRFKGSGSGTEFTLTISDLECADAATYYCQSYYTTSATSYGNAFGGGTEVVVK", "notes": "as for B1"}, "B12": {"name": "Antibody 87 (antibody, V domains shown)", "VH": "QSVEESGGRLVTPGTPLTVTCTVSGFSLSSYVMSWVRQAPGKGLEWIGIIASSGHTYYATWAKGRFTISKTSTTVDLKITSPTTEDTATYFCARYGSDSGWGYYFTLWGPGTLVTVSS", "VL": "AQVLTQTPSSVSEPVGGTVTINCQASENIYSYLSWYQQKRGQPPKLLIYGASTLASGVPSRFKGSGSGTEYTLTISDLECDDAATYYCQSGYYTNSGDLAFGGGTEVVVK", "notes": "as for B1"}, "B13": {"name": "Antibody D08 (antibody, V domains shown)", "VH": "QSLEESGGRLVTPGTPLTLTCTVSGFSLGTYWMSWVRQAPGRGLDWIGFIGSSGNGNYASWAKGRFTISRASSTTVDLKMTSLTTEDTATYFCARVKYFYYFDLWGQGTLVTVSS", "VL": "AQVLTQTTSPVSAAVGGTVTINCQASESVYGKKYLSWYQQKPGQPPKQLIYEASKLASGVPSRFEGSGSGTQFTLTISGVQCDDAATYYCQGEFSCSSADCTAFGGGTEVVVK", "notes": "as for B1"}, "B14": {"name": "Antibody D02 (antibody, V domains shown)", "VH": "QSLEESGGRLVTPGTPLTLTCTASRFSLSSYGVNWVRQAPGKGLQWIGYSHTDGSAYYTNWAKGRFTISRTSTTVDLKITSPTTADTATYFCWRGGLWGQGTLVTVSS", "VL": "AQVLTQTPSSVSAAVGGTVTINCQASQSVYKNNYLSWYQQKPGQPPKRLIYTASTLASGVPSRFKGSGSGTEFTLTISDVQCDDAATYYCVGGYDCSSADCNAFGGGTEVVVK", "notes": "as for B1"}}, "key": {"[1]": {"biological_target": "T1, recombinant Fc chimeric conjugate of human HER3 (human, UniProt P21860 20-643)", "T1 construct": "extracellular domain; Coated on the ELISA plate", "T1 sequence (P21860 20-643, change not shown)": "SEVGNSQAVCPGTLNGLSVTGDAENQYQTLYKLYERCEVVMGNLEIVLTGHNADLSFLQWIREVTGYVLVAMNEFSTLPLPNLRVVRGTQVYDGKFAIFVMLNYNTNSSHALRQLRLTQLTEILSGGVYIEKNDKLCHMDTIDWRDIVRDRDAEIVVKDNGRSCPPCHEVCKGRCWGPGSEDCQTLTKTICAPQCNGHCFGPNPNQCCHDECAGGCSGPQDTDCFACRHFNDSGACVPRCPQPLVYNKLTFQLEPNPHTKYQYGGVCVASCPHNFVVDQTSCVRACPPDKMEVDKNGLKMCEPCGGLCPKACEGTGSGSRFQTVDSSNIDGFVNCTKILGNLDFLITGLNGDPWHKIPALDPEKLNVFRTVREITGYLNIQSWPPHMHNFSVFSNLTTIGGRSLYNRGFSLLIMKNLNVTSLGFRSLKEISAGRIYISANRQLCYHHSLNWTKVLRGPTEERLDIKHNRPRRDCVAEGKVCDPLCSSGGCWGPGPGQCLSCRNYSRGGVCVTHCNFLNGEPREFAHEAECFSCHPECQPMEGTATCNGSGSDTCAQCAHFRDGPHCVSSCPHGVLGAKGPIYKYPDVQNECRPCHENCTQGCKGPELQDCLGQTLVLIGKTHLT", "assay": "ELISA, coated antigen", "protocol": "(§1) Microtiter plates were coated with a) c-Met, IGF-1R, EGFR, HER2, and/or HER3 protein or b) EGFR, HER2, and/or HER3 (recombinant Fc chimeric conjugates of human c-Met, IGF-1R, EGFR, HER2, HER3 or IL12 Rβ1). After a blocking process, specific antibodies from B-cell supernatants bind to the targets and are then detected by a POD-labeled anti-rabbit IgG antibody. The IL12R binding was used as a counter-screen.\n(§2) 12.5 μL 0.5 μg/mL protein in PBS was transferred to a microtiter plate incubated and washed 3× with Wash Buffer. 90 μL Block Buffer was added to each well, incubated and washed. 12.5 μL Standard Antibody (Anti-EGF-Receptor; HER2 Rabbit anti-Human Monoclonal (extracellular domain) (SP3) Antibody; HER3 (N-terminal) antibody; start concentration 2 μg/ml; IL-12Rbeta1 antibody start concentration 500 ng/ml) in 1:2 dilutions or sample diluted in ELISA buffer was added, incubated and washed. 12.5 μl 1:5000 POD-Antibody (Anti-rabbit IgG, peroxidase-linked species-specific Fab2 fragment (from donkey) (ECL); assay dilution: 1:5000) in Elisa Buffer was added, incubated and washed. 15 μl TMB was added and 15 μl HCl was added after sufficient development. Absorbance (Optical Density O.D.) was read at 450 nm/620 nm."}, "[2]": {"biological_target": "T2, recombinant Fc chimeric conjugate of human HER2 (human, UniProt P04626 23-652)", "T2 construct": "extracellular domain; Coated on the ELISA plate", "assay": "ELISA, coated antigen; supernatant IgG 1500.0 ng/ml", "protocol": "as §1, §2"}, "[3]": {"biological_target": "T3, recombinant Fc chimeric conjugate of human EGFR (human, UniProt P00533 25-645)", "T3 construct": "extracellular domain; Coated on the ELISA plate; also called HER1; Her1", "assay": "ELISA, coated antigen", "protocol": "as §1, §2"}, "[4]": {"biological_target": "T3, recombinant Fc chimeric conjugate of …", "assay": "ELISA, coated antigen", "remark": "listed apart in the source", "protocol": "as §1, §2"}, "[5]": {"biological_target": "T3, recombinant Fc chimeric conjugate of …", "assay": "ELISA, coated antigen; supernatant IgG 425.7 ng/ml", "protocol": "as §1, §2"}, "[6]": {"biological_target": "T1, recombinant Fc chimeric conjugate of …", "assay": "ELISA, coated antigen; supernatant IgG 425.7 ng/ml", "protocol": "as §1, §2"}, "[7]": {"biological_target": "T2, recombinant Fc chimeric conjugate of …", "assay": "ELISA, coated antigen; supernatant IgG 425.7 ng/ml", "protocol": "as §1, §2"}, "[8]": {"biological_target": "T3, recombinant Fc chimeric conjugate of …", "assay": "ELISA, coated antigen; supernatant IgG 81.8 ng/ml", "protocol": "as §1, §2"}, "[9]": {"biological_target": "T1, recombinant Fc chimeric conjugate of …", "assay": "ELISA, coated antigen; supernatant IgG 81.8 ng/ml", "protocol": "as §1, §2"}, "[10]": {"biological_target": "T2, recombinant Fc chimeric conjugate of …", "assay": "ELISA, coated antigen; supernatant IgG 81.8 ng/ml", "protocol": "as §1, §2"}, "[11]": {"biological_target": "T3, recombinant Fc chimeric conjugate of …", "assay": "ELISA, coated antigen; supernatant IgG 719.9 ng/ml", "protocol": "as §1, §2"}, "[12]": {"biological_target": "T1, recombinant Fc chimeric conjugate of …", "assay": "ELISA, coated antigen; supernatant IgG 719.9 ng/ml", "protocol": "as §1, §2"}, "[13]": {"biological_target": "T2, recombinant Fc chimeric conjugate of …", "assay": "ELISA, coated antigen; supernatant IgG 719.9 ng/ml", "protocol": "as §1, §2"}, "[14]": {"biological_target": "T3, recombinant Fc chimeric conjugate of …", "assay": "ELISA, coated antigen; supernatant IgG 377.5 ng/ml", "protocol": "as §1, §2"}, "[15]": {"biological_target": "T1, recombinant Fc chimeric conjugate of …", "assay": "ELISA, coated antigen; supernatant IgG 377.5 ng/ml", "protocol": "as §1, §2"}, "[16]": {"biological_target": "T2, recombinant Fc chimeric conjugate of …", "assay": "ELISA, coated antigen; supernatant IgG 377.5 ng/ml", "protocol": "as §1, §2"}, "[17]": {"biological_target": "T3, recombinant Fc chimeric conjugate of …", "assay": "ELISA, coated antigen; supernatant IgG 1148.9 ng/ml", "protocol": "as §1, §2"}, "[18]": {"biological_target": "T1, recombinant Fc chimeric conjugate of …", "assay": "ELISA, coated antigen; supernatant IgG 1148.9 ng/ml", "protocol": "as §1, §2"}, "[19]": {"biological_target": "T2, recombinant Fc chimeric conjugate of …", "assay": "ELISA, coated antigen; supernatant IgG 1148.9 ng/ml", "protocol": "as §1, §2"}, "[20]": {"biological_target": "T3, recombinant Fc chimeric conjugate of …", "assay": "ELISA, coated antigen; supernatant IgG 1500.0 ng/ml", "protocol": "as §1, §2"}, "[21]": {"biological_target": "T4, recombinant Fc chimeric conjugate of human IGF-1R (human, UniProt P08069 31-935)", "T4 construct": "extracellular domain; Coated on the ELISA plate", "T4 sequence (P08069 31-935, change not shown)": "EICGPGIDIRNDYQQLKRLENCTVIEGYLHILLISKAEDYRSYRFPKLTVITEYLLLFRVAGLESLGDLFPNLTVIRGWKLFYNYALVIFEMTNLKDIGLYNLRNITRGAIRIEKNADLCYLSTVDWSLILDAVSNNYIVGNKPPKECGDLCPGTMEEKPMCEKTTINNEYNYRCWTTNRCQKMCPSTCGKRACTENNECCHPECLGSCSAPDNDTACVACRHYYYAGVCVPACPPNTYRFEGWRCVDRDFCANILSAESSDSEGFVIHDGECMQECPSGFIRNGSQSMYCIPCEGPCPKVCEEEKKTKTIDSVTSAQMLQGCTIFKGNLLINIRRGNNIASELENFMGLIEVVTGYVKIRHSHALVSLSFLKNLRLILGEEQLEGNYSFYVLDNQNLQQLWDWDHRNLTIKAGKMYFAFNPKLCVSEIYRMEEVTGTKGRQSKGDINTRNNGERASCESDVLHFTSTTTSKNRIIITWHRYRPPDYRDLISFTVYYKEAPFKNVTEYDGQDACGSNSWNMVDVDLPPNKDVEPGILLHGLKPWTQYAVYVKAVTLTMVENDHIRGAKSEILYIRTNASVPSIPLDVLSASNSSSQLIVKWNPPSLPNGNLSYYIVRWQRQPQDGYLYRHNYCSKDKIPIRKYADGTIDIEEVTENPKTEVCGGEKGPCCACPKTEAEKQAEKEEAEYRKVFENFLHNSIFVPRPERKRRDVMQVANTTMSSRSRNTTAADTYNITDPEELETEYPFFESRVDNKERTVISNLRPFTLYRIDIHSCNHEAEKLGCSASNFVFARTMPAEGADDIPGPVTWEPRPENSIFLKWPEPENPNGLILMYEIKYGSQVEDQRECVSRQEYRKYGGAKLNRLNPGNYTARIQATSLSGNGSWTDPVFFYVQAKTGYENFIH", "assay": "ELISA, coated antigen", "protocol": "as §1, §2"}, "[22]": {"biological_target": "T2, recombinant Fc chimeric conjugate of …", "assay": "ELISA, coated antigen", "protocol": "as §1, §2"}}, "note": "Substitutions are numbered along the chain they refer to. Where two headings read alike, the source gives them in different places."}
{"binder": "B1", "values": [{"measurement": "binding result", "setting": "[1]", "value": "no binding (tested: OD 0.1 or lower)"}, {"measurement": "Optical density (OD)", "setting": "[2]", "value": 2.7, "unit": "OD"}]}
{"binder": "B2", "values": [{"measurement": "binding result", "setting": "[3]", "value": "no binding (tested: OD 0.1 or lower)"}]}
{"binder": "B3", "values": [{"measurement": "binding result", "setting": "[4]", "value": "no binding (tested: OD 0.1 or lower)"}]}
{"binder": "B4", "values": [{"measurement": "binding result", "setting": "[3]", "value": "no binding (tested: OD 0.1 or lower)"}]}
{"binder": "B5", "values": [{"measurement": "Optical density (OD)", "setting": "[5]", "value": 2.5, "unit": "OD"}, {"measurement": "Optical density (OD)", "setting": "[6]", "value": 1.9, "unit": "OD"}, {"measurement": "Optical density (OD)", "setting": "[7]", "value": 2.9, "unit": "OD"}]}
{"binder": "B6", "values": [{"measurement": "Optical density (OD)", "setting": "[8]", "value": 1.2, "unit": "OD"}, {"measurement": "Optical density (OD)", "setting": "[9]", "value": 1.1, "unit": "OD"}, {"measurement": "Optical density (OD)", "setting": "[10]", "value": 1.2, "unit": "OD"}]}
{"binder": "B7", "values": [{"measurement": "Optical density (OD)", "setting": "[11]", "value": 2.9, "unit": "OD"}, {"measurement": "Optical density (OD)", "setting": "[12]", "value": 2.7, "unit": "OD"}, {"measurement": "Optical density (OD)", "setting": "[13]", "value": 2.7, "unit": "OD"}]}
{"binder": "B8", "values": [{"measurement": "Optical density (OD)", "setting": "[14]", "value": 2.5, "unit": "OD"}, {"measurement": "Optical density (OD)", "setting": "[15]", "value": 0.6, "unit": "OD"}, {"measurement": "Optical density (OD)", "setting": "[16]", "value": 0.4, "unit": "OD"}]}
{"binder": "B9", "values": [{"measurement": "Optical density (OD)", "setting": "[17]", "value": 3.3, "unit": "OD"}, {"measurement": "Optical density (OD)", "setting": "[18]", "value": 2.6, "unit": "OD"}, {"measurement": "Optical density (OD)", "setting": "[19]", "value": 2.4, "unit": "OD"}]}
{"binder": "B10", "values": [{"measurement": "binding result", "setting": "[1]", "value": "no binding (tested: OD 0.1 or lower)"}, {"measurement": "Optical density (OD)", "setting": "[20]", "value": 1.5, "unit": "OD"}, {"measurement": "Optical density (OD)", "setting": "[2]", "value": 2.5, "unit": "OD"}]}
{"binder": "B11", "values": [{"measurement": "binding result", "setting": "[3]", "value": "no binding (tested: OD 0.1 or lower)"}]}
{"binder": "B12", "values": [{"measurement": "binding result", "setting": "[4]", "value": "no binding (tested: OD 0.1 or lower)"}]}
{"binder": "B13", "values": [{"measurement": "binding result", "setting": "[21]", "value": "no binding (tested: OD 0.1 or lower)"}, {"measurement": "binding result", "setting": "[22]", "value": "no binding (tested: OD 0.1 or lower)"}]}
{"binder": "B14", "values": [{"measurement": "binding result", "setting": "[21]", "value": "no binding (tested: OD 0.1 or lower)"}]}
